Experimental data: PMC9317960 (Biochemical Journal, 2022)

T1: Human Scribble (SCRIB) PDZ3 domain (1002-1094) (human, UniProt Q14160 1002-1094)
T1 sequence (looked up): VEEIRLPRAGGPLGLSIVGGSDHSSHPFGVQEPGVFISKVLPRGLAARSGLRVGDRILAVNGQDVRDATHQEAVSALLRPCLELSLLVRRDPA


Assays:
[1] = system: a wide range of different PDZ domains; conditions: cited from earlier work
[2] = target: T1, Human Scribble (SCRIB) PDZ3 domain …; test: ITC; conditions: both partners purified

Molecule	affinity towards PDZ domains, in words [1]	Kd [2] [µM]	dH [2] [kcal/mol]	stoichiometry N [2]
RSWFETWV [Superpeptide, used as a positive control]	affinity towards a wide range of different PDZ domains	–	–	–
LRLESSII [TBEV NS5_CTN peptide (C-terminal PBM of NS5)]	–	18.4	-1.1	1
